Laboratory results reported in patent US20210347833A1 (WISYS TECHNOLOGY FOUNDATION, published 2021).

Biological target: the molecule itself
Experiment: size-exclusion chromatography, titration of apoSFP with biliverdin; self-association of subunits (apo protein is monomeric, no dimer fraction seen)

B1: Recombinant wild-type Sandercyanin fluorescent protein (SFP) lacking the signal peptide (other)
chain: MFIKPGRCPKPAVQEDFDAARYLGVWYDIQRLPNKFQKGECATATYSLSPGVGFSVFNRERLANGTIKSVIGSAIAEDPCEPAKLQFFHENAAPVPYWVLSTDYDNYALVYSCINLGASHAAYASIVSRQPTLPEETIKKLQGTMSSFGVGVDTLLTTNQDAAYCSAMNQ
notes: the apo protein is a monomer in solution; also called wtSFP; wild-type SFP
- binding result: binds
